Assay results from article PMC9270254.

How the values were obtained:
human IgG (human) = assay: SPR
human IgM (human) = assay: SPR

Kd1 (first phase, two-exponential fit) (human IgG (human)): 6.8 nM
kd1 (first phase, two-exponential fit) (human IgG (human)): 0.032 s⁻¹
kd2 (second phase, two-exponential fit) (human IgG (human)): 0.0021 s⁻¹
Kd1 (first phase, two-exponential fit) (human IgM (human)): 8.5 nM
kd1 (first phase, two-exponential fit) (human IgM (human)): 0.029 s⁻¹
kd2 (second phase, two-exponential fit) (human IgM (human)): 0.0023 s⁻¹
Substance: single-chain mouse globular part of C1q (from UniProt P98086 110-245; Q02105 116-246; P14106 115-253) (domain or fragment)
